Experimental data reported in publication PMC9734117, “Selective posttranslational inhibition of CaVβ1-associated voltage-dependent calcium channels with a functionalized nanobody” (Nature Communications, 2022).

What was measured:
Conditions in all cases: partners not purified
Cerulean-CaVβ1 = Cerulean-CaVβ1 ( (human or rat cDNA cloned), UniProt Q02641-1); assay: FRET or BRET; flow cytometry FRET (flow-FRET) in live HEK293 cells co-transfected with Venus-nanobody and Cerulean-CaVβ; FRET efficiency against free nanobody fitted with a 1:1 binding model; effective dissociation constant (Kd,EFF); cycloheximide 100 μM 2 h before
Cerulean-CaVβ2 = Cerulean-CaVβ2 ( (human or rat cDNA cloned), UniProt Q08289); assay: as above
Cerulean-CaVβ3 = Cerulean-CaVβ3 ( (human or rat cDNA cloned), UniProt P54284); assay: as above
Cerulean-CaVβ4 = Cerulean-CaVβ4 ( (human or rat cDNA cloned), UniProt O00305); assay: as above
Venus-tagged β1b[NK-CT] = target: T1, Venus-tagged β1b[NK-CT] (Rattus norvegicus (assumed), UniProt P54283); assay: FRET or BRET; flow cytometry FRET (flow-FRET) in HEK293 cells co-expressing Cerulean-nb.E8 and Venus-tagged β1b modules or β1b/β3 chimeras; 1:1 binding model; effective dissociation constant (Kd,EFF)
T1 construct: CaVβ1b module of the NK domain and the C-terminus; the text says the module was tagged with Cerulean; source: HEK293, co-expressed, in cells
T1 sequence (P54283 whole entry, looked up, the tested form may be a part): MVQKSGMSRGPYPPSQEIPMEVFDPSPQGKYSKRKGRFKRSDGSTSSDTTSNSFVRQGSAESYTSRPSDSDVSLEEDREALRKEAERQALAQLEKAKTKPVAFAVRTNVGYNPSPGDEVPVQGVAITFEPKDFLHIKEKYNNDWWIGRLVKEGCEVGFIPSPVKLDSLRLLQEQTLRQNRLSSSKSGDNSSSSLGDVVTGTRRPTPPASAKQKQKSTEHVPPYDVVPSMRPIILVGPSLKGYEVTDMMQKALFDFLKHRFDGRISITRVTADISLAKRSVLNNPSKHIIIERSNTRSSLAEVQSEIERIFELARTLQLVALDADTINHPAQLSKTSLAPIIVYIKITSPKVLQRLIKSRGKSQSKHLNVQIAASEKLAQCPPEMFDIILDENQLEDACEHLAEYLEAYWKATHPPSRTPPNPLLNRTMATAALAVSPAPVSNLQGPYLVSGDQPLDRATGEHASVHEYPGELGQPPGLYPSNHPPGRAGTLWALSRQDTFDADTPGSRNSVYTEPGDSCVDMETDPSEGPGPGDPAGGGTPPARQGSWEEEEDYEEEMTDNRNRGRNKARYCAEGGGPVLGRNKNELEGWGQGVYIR

Sequence of Cerulean-CaVβ1 (Q02641 whole entry): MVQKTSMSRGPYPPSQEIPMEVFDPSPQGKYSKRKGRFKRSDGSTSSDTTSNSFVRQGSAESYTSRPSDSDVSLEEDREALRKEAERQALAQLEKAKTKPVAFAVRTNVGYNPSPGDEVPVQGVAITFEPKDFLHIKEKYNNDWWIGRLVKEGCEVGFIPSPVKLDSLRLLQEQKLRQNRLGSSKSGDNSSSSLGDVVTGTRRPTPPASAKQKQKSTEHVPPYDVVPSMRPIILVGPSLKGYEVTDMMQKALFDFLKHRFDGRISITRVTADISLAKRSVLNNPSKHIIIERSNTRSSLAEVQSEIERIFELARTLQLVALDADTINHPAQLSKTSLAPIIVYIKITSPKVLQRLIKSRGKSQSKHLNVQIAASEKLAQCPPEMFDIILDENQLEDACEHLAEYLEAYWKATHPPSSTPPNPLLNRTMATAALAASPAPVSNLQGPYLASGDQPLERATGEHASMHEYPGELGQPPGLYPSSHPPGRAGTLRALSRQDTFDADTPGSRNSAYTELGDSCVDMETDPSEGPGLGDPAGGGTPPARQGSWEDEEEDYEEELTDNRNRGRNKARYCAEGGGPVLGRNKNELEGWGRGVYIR
Sequence of Cerulean-CaVβ2 (Q08289 whole entry): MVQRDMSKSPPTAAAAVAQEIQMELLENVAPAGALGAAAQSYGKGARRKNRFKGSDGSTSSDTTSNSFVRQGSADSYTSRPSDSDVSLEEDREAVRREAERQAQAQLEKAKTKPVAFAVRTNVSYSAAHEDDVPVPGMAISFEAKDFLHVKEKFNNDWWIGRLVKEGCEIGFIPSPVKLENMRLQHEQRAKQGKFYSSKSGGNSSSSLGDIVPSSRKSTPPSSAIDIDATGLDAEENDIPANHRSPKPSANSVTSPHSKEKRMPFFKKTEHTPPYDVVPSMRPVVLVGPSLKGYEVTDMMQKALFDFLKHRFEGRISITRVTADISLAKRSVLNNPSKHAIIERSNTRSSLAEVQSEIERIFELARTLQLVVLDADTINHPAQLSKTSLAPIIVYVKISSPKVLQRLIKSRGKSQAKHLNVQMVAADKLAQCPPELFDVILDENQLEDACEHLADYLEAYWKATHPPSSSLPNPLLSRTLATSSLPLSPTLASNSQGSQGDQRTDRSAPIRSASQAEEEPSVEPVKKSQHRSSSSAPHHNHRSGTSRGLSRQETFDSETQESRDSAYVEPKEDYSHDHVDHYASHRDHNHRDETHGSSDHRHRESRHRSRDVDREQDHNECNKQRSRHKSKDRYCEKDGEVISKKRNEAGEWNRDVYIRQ
Sequence of Cerulean-CaVβ3 (P54284 whole entry): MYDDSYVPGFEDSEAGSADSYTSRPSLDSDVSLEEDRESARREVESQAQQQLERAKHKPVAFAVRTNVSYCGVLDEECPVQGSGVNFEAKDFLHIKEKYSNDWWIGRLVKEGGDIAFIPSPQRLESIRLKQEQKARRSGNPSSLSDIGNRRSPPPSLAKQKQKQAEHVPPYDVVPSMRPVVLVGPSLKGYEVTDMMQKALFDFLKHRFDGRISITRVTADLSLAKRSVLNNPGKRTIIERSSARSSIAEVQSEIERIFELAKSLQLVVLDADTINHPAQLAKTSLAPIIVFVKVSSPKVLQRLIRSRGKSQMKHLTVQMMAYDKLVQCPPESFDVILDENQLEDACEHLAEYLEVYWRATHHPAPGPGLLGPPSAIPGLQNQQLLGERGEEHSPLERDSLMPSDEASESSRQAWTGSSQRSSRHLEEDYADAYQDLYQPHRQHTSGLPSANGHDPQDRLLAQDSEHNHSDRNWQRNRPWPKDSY

Row | Binder | binding result (Cerulean-CaVβ1) | binding result (Cerulean-CaVβ2) | binding result (Cerulean-CaVβ3) | binding result (Cerulean-CaVβ4) | binding result (Venus-tagged β1b[NK-CT])
1 | Venus-nb.F3 (VHH, llama nanobody nb.F3 from a phage display library; The methods say the nanobodies were cloned upstream of a Venus marker (pCDNA3.1), while the name Venus-nb.F3 puts the tag first; also called Venus-tagged nb.F3; source: HEK293, transiently co-transfected, in cells; not shown: Venus, C-terminal, kept) VHH: QVQLQESGGGLVQAGGSLRLSCVASGRTFSSYAMGWFRQAPGKEREFVAAIDWSGGTASHADSVKGRFTISRDNAKNTVYLQMNSLKPEDTAVYYCAASSYWSRSVDEYDYWGQGTQVTVSS | binds | binds | binds | binds | –
2 | Venus-nb.E8 (VHH, llama nanobody nb.E8 from a phage display library; The methods say the nanobodies were cloned upstream of a Venus marker (pCDNA3.1), while the name Venus-nb.E8 puts the tag first; also called Venus-tagged nb.E8; source: HEK293, transiently co-transfected, in cells; not shown: Venus, C-terminal, kept) VHH: QVQLQESGGGSVQAGGSLRLSCAASGRTFSKNAMGWFRQAPGKEREFVVAISWSGRNTYYADSVKGRFTISRDNAKNTVDLQMNSLKPEDSAVYYCAVGGDWRVYDISFYYTAHQYEYWGQGTQVTVSS | binds | no binding | no binding | no binding | –
3 | Cerulean-nb.E8 (VHH, the text of the results says that the CaVβ1 modules carried Cerulean; source: HEK293, co-expressed, in cells) VHH: QVQLQESGGGSVQAGGSLRLSCAASGRTFSKNAMGWFRQAPGKEREFVVAISWSGRNTYYADSVKGRFTISRDNAKNTVDLQMNSLKPEDSAVYYCAVGGDWRVYDISFYYTAHQYEYWGQGTQVTVSS | – | – | – | – | no binding
